The target in experiment [1] is MtdL E341K mutant (Marinactinospora thermotolerans SCSIO 00652). The experiment is described as follows: SEC-MALS; static light scattering (SLC): Superdex 200 Increase column on an Akta Pure L system, on-line eight-angle static light scattering detector (DAWN HELEOS II) and differential refractive index detector; molar masses by ASTRA 7.0.1. Background: SEC sorts molecules by how far they enter the pores of the column.

Experiment [2] deals with MtdL wildtype, His6-tagged (Marinactinospora thermotolerans SCSIO 00652). The experiment is described as above.

Data on two substances can be found in article PMC9937993, “Structures of the NDP-pyranose mutase belonging to glycosyltransferase family 75 reveal residues important for Mn^2+ coordination and substrate binding” (The Journal of Biological Chemistry, 2023).

The term stoichiometry N denotes the number of molecules, sites or subunits per partner or assembly.

MtdL E341K mutant (enzyme) yielded a stoichiometry N in experiment [1] of 2.

As to MtdL wildtype, His6-tagged (enzyme), the stoichiometry N in experiment [2] turned out to be 4.
